The results in this text go back to US20100015058A1 (STANFORD UNIVERSITY, published 2010).

Experiment [1] addresses T1, gastrin-releasing peptide receptor (GRPR) (human, UniProt P30550 1-384).
T1 construct: whole, on cells; also called GRP receptor
Nature of the experiment: displacement of ^125I-[Tyr^4]BBN from 10^5 PC-3 cells.
Method: (§1) The best-fit 50% inhibitory concentration (IC₅₀) values were calculated by fitting the data with nonlinear regression using Graph-Pad Prism (GraphPad Software, Inc.). Experiments were performed with triplicate samples.

The target of experiment [2] is T2, integrin αvβ3 (human, UniProt P06756 31-1048; P05106 27-788).
T2 construct: whole, on cells; Endogenous receptor on U87MG human glioblastoma cells in the IC50 assays; also called integrin alpha v beta 3; human integrin αvβ3
T2 sequence (P06756 31-1048, chain 1 of 2): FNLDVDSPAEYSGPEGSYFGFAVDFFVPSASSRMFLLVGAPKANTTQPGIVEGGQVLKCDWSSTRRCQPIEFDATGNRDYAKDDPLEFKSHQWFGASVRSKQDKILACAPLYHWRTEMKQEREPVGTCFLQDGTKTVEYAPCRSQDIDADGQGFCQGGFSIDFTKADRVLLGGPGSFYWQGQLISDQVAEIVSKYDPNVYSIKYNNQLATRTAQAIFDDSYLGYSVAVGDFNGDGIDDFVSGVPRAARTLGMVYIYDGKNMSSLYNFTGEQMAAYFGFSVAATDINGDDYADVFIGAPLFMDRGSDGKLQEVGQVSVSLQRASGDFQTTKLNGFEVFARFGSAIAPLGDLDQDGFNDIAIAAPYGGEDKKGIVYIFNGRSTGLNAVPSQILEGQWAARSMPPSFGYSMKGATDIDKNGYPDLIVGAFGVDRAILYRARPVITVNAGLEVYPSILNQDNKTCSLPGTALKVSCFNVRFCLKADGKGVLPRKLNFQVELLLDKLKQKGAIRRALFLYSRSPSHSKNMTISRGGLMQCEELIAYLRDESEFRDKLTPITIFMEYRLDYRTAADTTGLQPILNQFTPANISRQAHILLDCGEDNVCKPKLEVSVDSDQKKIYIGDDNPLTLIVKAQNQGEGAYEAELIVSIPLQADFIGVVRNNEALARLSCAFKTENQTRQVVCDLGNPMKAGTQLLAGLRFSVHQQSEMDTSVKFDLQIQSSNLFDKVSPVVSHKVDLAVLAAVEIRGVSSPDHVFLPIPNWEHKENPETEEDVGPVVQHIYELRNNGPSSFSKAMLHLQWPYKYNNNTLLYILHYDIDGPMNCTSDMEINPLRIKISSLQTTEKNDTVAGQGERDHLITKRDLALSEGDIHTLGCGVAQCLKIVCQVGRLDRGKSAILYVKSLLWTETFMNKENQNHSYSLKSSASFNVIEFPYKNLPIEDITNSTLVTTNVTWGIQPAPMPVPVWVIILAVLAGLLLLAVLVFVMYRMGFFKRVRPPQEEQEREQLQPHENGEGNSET
T2 sequence (P05106 27-788, chain 2 of 2): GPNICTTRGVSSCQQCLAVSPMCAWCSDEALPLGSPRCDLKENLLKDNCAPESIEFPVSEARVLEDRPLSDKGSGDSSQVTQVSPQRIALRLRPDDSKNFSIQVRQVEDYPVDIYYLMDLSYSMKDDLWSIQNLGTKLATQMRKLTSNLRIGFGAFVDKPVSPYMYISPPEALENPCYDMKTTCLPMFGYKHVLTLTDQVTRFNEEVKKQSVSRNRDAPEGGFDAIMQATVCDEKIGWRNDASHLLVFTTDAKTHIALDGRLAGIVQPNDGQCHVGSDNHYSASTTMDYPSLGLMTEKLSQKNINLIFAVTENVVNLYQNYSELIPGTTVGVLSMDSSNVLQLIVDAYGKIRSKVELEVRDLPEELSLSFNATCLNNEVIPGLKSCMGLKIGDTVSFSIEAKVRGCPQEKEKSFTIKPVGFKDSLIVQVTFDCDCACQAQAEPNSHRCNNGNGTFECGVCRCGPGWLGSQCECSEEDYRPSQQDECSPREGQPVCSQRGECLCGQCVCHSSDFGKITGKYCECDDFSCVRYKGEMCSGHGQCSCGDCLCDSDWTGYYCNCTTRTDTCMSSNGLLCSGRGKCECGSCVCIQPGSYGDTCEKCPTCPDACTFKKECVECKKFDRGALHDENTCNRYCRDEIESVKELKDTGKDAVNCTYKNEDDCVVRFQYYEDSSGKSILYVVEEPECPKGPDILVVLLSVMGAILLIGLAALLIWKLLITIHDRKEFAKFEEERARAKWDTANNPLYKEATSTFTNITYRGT
Kind of experiment: competitive displacement of ^125I-echistatin on U87MG cells.
Method: as §1

For experiment [3], the target named is T1, gastrin-releasing peptide receptor …. Nature of the experiment: displacement of ^125I-[Tyr^4]BBN from PC-3 cells.
The target is the same in experiment [4]. Kind of experiment: competitive binding with 125I-[Tyr4]BBN on PC-3 cells; determined with NOTA-RGD-BBN.
Experiment [5] concerns the target T2, integrin αvβ3. Kind of experiment: competitive binding with ^125I-c(RGDyK) on U87MG cells.
Method: The best-fit 50% inhibitory concentration (IC₅₀) values were calculated by fitting the data with nonlinear regression using GraphPad Prism (GraphPad Software). Experiments were performed twice with triplicate samples.
Experiment [6] concerns the target T2, integrin αvβ3. Nature of the experiment: competitive binding with 125I-c(RGDyK) on U87MG cells.
Experiment [7] concerns the target T1, gastrin-releasing peptide receptor …. Nature of the experiment: competitive binding with 125I-[Tyr4]BBN on PC-3 cells.
For experiment [8] the target is unchanged. Nature of the experiment: displacement of ^125I-[Tyr^4]BBN from PC-3 cells; determined with FB-PEG3-RGD-BBN.

T1 sequence (P30550 whole entry): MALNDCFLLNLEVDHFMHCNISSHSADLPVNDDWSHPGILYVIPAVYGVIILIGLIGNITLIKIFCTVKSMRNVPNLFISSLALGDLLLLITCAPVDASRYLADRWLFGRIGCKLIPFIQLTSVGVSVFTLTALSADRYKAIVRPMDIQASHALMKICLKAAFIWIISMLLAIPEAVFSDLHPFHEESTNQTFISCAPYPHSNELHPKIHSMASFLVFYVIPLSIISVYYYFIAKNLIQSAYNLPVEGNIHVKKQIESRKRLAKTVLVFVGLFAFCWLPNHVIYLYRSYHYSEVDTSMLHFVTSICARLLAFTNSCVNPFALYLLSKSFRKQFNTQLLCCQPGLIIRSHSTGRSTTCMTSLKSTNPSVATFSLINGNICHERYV

B1: FB-NH-Glu-BBN(7-14)-c(RGDyK) (FB-BBN-RGD) (peptide)
peptide 1: RGDYK
peptide 2: EQWAVGHLM
modifications: 4-fluorobenzoyl (FB) on the Glu amino group; Aca between Glu and Gln; C-terminal amide (Met-NH2); cyclic (cyclo); D-Tyr at position 4; Lys joined to one carboxylate of the Glu linker
notes: non-radioactive FB form used in the IC50 assays; also called ^18F-FB-BBN-RGD
What is called IC50 is the concentration at which inhibition is half-maximal. With B1, the figures for the half-inhibitory concentration (IC50) (in experiment [1]; in the experiment with integrin αvβ3 [2]) were 32 nM and 282 nM, respectively.

B2: NOTA-RGD-BBN (VII) (peptide)
peptide 1: RGDYK
peptide 2: EQWAVGHLM
modifications: NOTA (from p-SCN-Bn-NOTA, SCN-amine reaction) on the amine of RGD-BBN; Aca between Glu and Gln; C-terminal amide (Met-NH2); cyclic (cyclo); D-Tyr at position 4; Lys side chain joined to the Glu …
notes: also called NOTA-RGD-bombesin; ^64Cu-NOTA-RGD-BBN
For B2, the half-inhibitory concentration (IC50) in experiment [3] was 55.9 nM; in experiment [4], 92.8 nM.

B3: RGD-BBN, cyclo(Arg-Gly-Asp-D-Tyr-Lys)-Glu-(Aca-Gln-Trp-Ala-Val-Gly-His-Leu-Met-NH2) (peptide)
peptide 1: RGDYK
peptide 2: EQWAVGHLM
modifications: free amino group on Glu; Glu side-chain carboxylate joined to Aca; Aca between Glu and Gln; C-terminal amide (Met-NH2); cyclic (cyclo); D-Tyr at position 4; Lys side chain ε-amine joined to the α-carboxylate of Glu
notes: also called Glu-RGD-BBN; RGD-bombesin
In the case of B3, the values for the concentration for half-maximal inhibition (IC50) (in the experiment with integrin αvβ3 [5]; in experiment [3]) were 17.9 nM and 67.9 nM, respectively.

B4: NH2-Glu-BBN(7-14)-c(RGDyK) (BBN-RGD) (peptide)
peptide 1: RGDYK
peptide 2: EQWAVGHLM
modifications: free amino group on Glu; Aca between Glu and Gln; C-terminal amide (Met-NH2); cyclic (cyclo); D-Tyr at position 4; Lys joined to one carboxylate of the Glu linker
notes: also called heterodimer BBN-RGD; BBN-RGD heterodimeric construct
With B4, the IC50 in experiment [1] was 35.7 nM; with integrin αvβ3 [2] it was 428 nM. Aca-QWAVGHLM-NH2 (also called BBN monomer; cold BBN) [Aca-BBN(7-14), Aca-Gln-Trp-Ala-Val-Gly-His-Leu-Met-NH2]: in the experiment with integrin αvβ3 [5], the binding result is on record as “no binding”.

B5: DOTA-RGD-BBN (VIII) (peptide)
peptide 1: RGDYK
peptide 2: EQWAVGHLM
modifications: not fully specified; DOTA (from DOTA-OSSu) on the amine of RGD-bombesin; Aca between Glu and Gln; C-terminal amide (Met-NH2); cyclic (cyclo); D-Tyr at position 4; Lys side chain joined to the Glu linker
notes: also called DOTA-RGD-bombesin; ^64Cu-DOTA-RGD-BBN
B5: the 50% inhibitory concentration (IC50) in the experiment with integrin αvβ3 [6] turned out to be 21.6 nM; in experiment [7], 85.8 nM.

B6: PEG3-Glu-RGD-BBN (peptide)
peptide 1: RGDYK
peptide 2: EQWAVGHLM
modifications: not fully specified; PEG3 (11-amino-3,6,9-trioxaundecanoic acid) on the Glu amino group; Glu γ-carboxylate joined to Aca; Aca between Glu and Gln; C-terminal amide (Met-NH2); cyclic (cyclo); D-Tyr at position 4; Lys side chain ε-amine joined to the α-carboxylate of Glu
notes: also called PEG3-RGD-BBN
In turn, B6 displayed a half-maximal inhibitory concentration (IC50) in experiment [3] of 85.5 nM.

B7: FB-PEG3-Glu-RGD-BBN (peptide)
peptide 1: RGDYK
peptide 2: EQWAVGHLM
modifications: 4-fluorobenzoyl (FB) on the amino group of the PEG3 spacer (11-amino-3,6,9-trioxaundecanoic acid), PEG3 on the Glu amino group; Glu γ-carboxylate joined to Aca; Aca between Glu and Gln; C-terminal amide (Met-NH2); cyclic (cyclo); D-Tyr at position 4; Lys side chain ε-amine joined to the α-carboxylate of Glu
notes: also called FB-PEG3-RGD-BBN; ^18F-FB-PEG3-Glu-RGD-BBN
For the molecule B7, the half-inhibitory concentration (IC50) in experiment [8] was found to be 73.3 nM.
